From patent US20120114665A1 come the findings set out here.

The target of this test is T1, penta-his-tagged hRANKL (human).
T1 sequence: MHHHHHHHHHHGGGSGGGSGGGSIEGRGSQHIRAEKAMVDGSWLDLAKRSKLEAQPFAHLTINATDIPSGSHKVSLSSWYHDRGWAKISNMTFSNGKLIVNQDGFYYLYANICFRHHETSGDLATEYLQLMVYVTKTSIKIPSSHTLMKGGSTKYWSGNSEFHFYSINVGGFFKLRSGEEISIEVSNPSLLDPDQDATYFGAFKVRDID
Nature of the test: competition ELISA: 150 pM his-hRANKL pre-mixed with antibody, free RANKL detected on hRANK-hFc plate. On the technique in general: An ELISA detects its analyte on a solid surface through an enzyme-linked reagent.

Sequence of Control: Human anti-hRANKL mAb, SEQ ID NO: 2 and 4 of U.S. Pat. No. 7,364,736 (antibody) (VH): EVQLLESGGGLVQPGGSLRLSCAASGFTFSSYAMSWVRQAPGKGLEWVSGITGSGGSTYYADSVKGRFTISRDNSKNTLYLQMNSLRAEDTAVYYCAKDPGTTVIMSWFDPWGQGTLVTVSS
Sequence of Control: Human anti-hRANKL mAb, SEQ ID NO: 2 and 4 of U.S. Pat. No. 7,364,736 (antibody) (VL): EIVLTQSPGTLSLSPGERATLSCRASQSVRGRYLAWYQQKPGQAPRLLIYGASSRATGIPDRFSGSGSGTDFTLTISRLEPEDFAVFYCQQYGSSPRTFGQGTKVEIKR

As a reminder, the IC50 is the midpoint of a concentration-inhibition curve. A high value points to a need for much substance. As for “Control: Human anti-hRANKL mAb, SEQ ID NO: 2 and 4 of U.S. Pat. No. 7,364,736 (antibody)”, the IC50 came to 0.095 nM.
